Measurements from article PMC2588524 (Nucleic Acids Research, 2008).

Assays:
[1] = target: T1, C-terminal domain of mouse Dnmt3a (residues 608-908) (mouse, UniProt O88508 608-908); assay: co-purification
[2] = target: T1, C-terminal domain of mouse Dnmt3a …; assay: AUC

T1 sequence (O88508 608-908): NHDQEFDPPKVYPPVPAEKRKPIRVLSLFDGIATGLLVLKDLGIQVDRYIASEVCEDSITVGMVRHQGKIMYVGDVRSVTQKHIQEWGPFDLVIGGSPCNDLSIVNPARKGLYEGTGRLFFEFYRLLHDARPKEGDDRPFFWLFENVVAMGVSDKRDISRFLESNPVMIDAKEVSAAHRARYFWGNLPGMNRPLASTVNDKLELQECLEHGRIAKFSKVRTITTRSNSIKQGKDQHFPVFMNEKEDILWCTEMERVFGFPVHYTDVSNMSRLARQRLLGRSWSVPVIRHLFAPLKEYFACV

B1: C-terminal domain of mouse Dnmt3L (residues 208-421) (domain or fragment, UniProt Q9CWR8 208-421, looked up)
chain: GPMEIYKTVSAWKRQPVRVLSLFRNIDKVLKSLGFLESGSGSGGGTLKYVEDVTNVVRRDVEKWGPFDLVYGSTQPLGSSCDRCPGWYMFQFHRILQYALPRQESQRPFFWIFMDNLLLTEDDQETTTRFLQTEAVTLQDVRGRDYQNAMRVWSNIPGLKSKHAPLTPKEEEYLQAQVRSRSKLDAPKVDLLVKNCLLPLREYFKYFSQNSLPL
[1]
  stoichiometry N: 1
[2]
  stoichiometry N: 1 2:2 (Dnmt3a-C:Dnmt3L-C)
